Assay results from patent US20240124563A1.
Where two headings read alike, the source gives them in different places.

Legend:
[1] = target: human MSLN full-length protein, recombinant, on CHO-K1 or HEK293T cells (human) (UniProt Q13421); assay: competitive FACS on CHO-K1-human MSLN-2C8 cells vs Biotin-Tab142; competitor at 0.00256 nM
[2] = target: monkey MSLN full-length protein on HEK293T cells (monkey); assay: FACS, HEK293T-monkey-MSLN cells, antibody 0.032 nM
[3] = target: human MSLN full-length protein on transfected cells (CHO-K1-hMSLN clones 2C8, 2D11, 2C5; HEK293T-hMSLN clones B8, 2A4, 2A7) (human) (UniProt Q13421); assay: FACS, CHO-K1-hMSLN-2C8 cells, antibody 4 nM
[4] = target: human MSLN protein endogenously expressed on tumor cells (Hela, OVCAR3) (human) (UniProt Q13421); assay: FACS, OVCAR3 cells, antibody 20 nM
[5] = target: human MSLN full-length protein, recombinant, on CHO-K1 or HEK293T cells (human) (UniProt Q13421); assay: competitive FACS on CHO-K1-human MSLN-2C8 cells vs Biotin-Tab142; competitor at 1.6 nM
[6] = target: human MSLN full-length protein, recombinant, on CHO-K1 or HEK293T cells (human) (UniProt Q13421); assay: competitive FACS on CHO-K1-human MSLN-2C8 cells vs Biotin-Tab131; competitor at 0.0128 nM
[7] = target: chimeric human MSLN-R3 / chicken MSLN-R1-2 protein on HEK293T cells (clone A5) (chicken; human); assay: FACS, HEK293T-hR3/chickR1-2-A5 cells, antibody 20 nM
[8] = target: human MSLN full-length protein, recombinant, on CHO-K1 or HEK293T cells (human) (UniProt Q13421); assay: FACS, HEK293T-hMSLN-B8 cells
[9] = target: monkey MSLN full-length protein on HEK293T cells (monkey); assay: FACS, HEK293T-monkey-MSLN cells, antibody 20 nM
[10] = target: monkey MSLN full-length protein on HEK293T cells (monkey); assay: FACS, HEK293T-monkey-MSLN cells, antibody 100 nM
[11] = target: human MSLN-R3-rFc protein (human) (UniProt Q13421); assay: ELISA, antibody 4 nM
[12] = target: human MSLN full-length protein, recombinant, on CHO-K1 or HEK293T cells (human) (UniProt Q13421); assay: competitive FACS on CHO-K1-human MSLN-2C8 cells vs Biotin-Tab131; competitor at 0.064 nM
[13] = target: human MSLN-R3-3 polypeptide (purchased from GL Biochem, Cat. No. 406676) (human); assay: ELISA, antibody 1 nM
[14] = target: human MSLN-R3-rFc protein (human) (UniProt Q13421); assay: ELISA, antibody 1 nM
[15] = target: human MSLN full-length protein on transfected cells (CHO-K1-hMSLN clones 2C8, 2D11, 2C5; HEK293T-hMSLN clones B8, 2A4, 2A7) (human) (UniProt Q13421); assay: FACS, CHO-K1-hMSLN-2C8 cells, antibody 0.00128 nM
[16] = target: chimeric human MSLN-R3 / chicken MSLN-R1-2 protein on HEK293T cells (clone A5) (chicken; human); assay: FACS, HEK293T-hR3/chickR1-2-A5 cells, antibody 0.2 nM
[17] = target: human MSLN protein endogenously expressed on tumor cells (Hela, OVCAR3) (human) (UniProt Q13421); assay: FACS, OVCAR3 cells, antibody 0.16 nM
[18] = target: monkey MSLN full-length protein on HEK293T cells (monkey); assay: FACS, HEK293T-monkey MSLN cells
[19] = target: human MSLN full-length protein, recombinant, on CHO-K1 or HEK293T cells (human) (UniProt Q13421); assay: competitive FACS on CHO-K1-human MSLN-2C8 cells vs Biotin-Tab142; competitor at 100 nM
[20] = target: human MSLN protein endogenously expressed on tumor cells (Hela, OVCAR3) (human) (UniProt Q13421); assay: FACS, OVCAR3 cells, antibody 0.0064 nM
[21] = target: human MSLN full-length protein, recombinant, on CHO-K1 or HEK293T cells (human) (UniProt Q13421); assay: competitive FACS on CHO-K1-human MSLN-2C8 cells vs Biotin-Tab142; competitor at 200 nM
[22] = target: human MSLN full-length protein, recombinant, on CHO-K1 or HEK293T cells (human) (UniProt Q13421); assay: competitive FACS on CHO-K1-human MSLN-2C8 cells vs Biotin-Tab142; competitor at 20 nM
[23] = target: human MSLN full-length protein on transfected cells (CHO-K1-hMSLN clones 2C8, 2D11, 2C5; HEK293T-hMSLN clones B8, 2A4, 2A7) (human) (UniProt Q13421); assay: FACS, CHO-K1-hMSLN-2C8 cells, antibody 0.0064 nM
[24] = target: monkey MSLN full-length protein on HEK293T cells (monkey); assay: FACS, HEK293T-monkey MSLN cells; remark: listed apart in the source
[25] = target: human MSLN-R3-rFc protein (human) (UniProt Q13421); assay: ELISA, antibody 0.032 nM
[26] = target: human MSLN full-length protein, recombinant, on CHO-K1 or HEK293T cells (human) (UniProt Q13421); assay: FACS, CHO-K1-hMSLN-2C8 cells
[27] = target: human MSLN full-length protein, recombinant, on CHO-K1 or HEK293T cells (human) (UniProt Q13421); assay: competitive FACS on CHO-K1-human MSLN-2C8 cells vs Biotin-Tab131; competitor at 0.32 nM
[28] = target: monkey MSLN full-length protein on HEK293T cells (monkey); assay: FACS, HEK293T-monkey-MSLN cells, antibody 0.0064 nM
[29] = target: human MSLN protein endogenously expressed on tumor cells (Hela, OVCAR3) (human) (UniProt Q13421); assay: FACS, OVCAR3 cells, antibody 100 nM

Sequence of human MSLN full-length protein on transfected cells (CHO-K1-hMSLN clones 2C8, 2D11, 2C5; HEK293T-hMSLN clones B8, 2A4, 2A7) (human) (Q13421 other isoform, or with tags, fused parts or gaps limits assumed): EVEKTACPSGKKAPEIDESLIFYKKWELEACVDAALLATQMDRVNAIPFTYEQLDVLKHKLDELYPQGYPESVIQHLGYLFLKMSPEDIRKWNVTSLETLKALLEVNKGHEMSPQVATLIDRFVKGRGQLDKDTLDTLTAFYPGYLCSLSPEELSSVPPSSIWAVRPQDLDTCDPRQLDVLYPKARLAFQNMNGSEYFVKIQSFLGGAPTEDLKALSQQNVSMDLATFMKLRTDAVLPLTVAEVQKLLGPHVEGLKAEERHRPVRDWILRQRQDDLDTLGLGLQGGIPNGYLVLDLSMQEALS
Sequence of human MSLN full-length protein, recombinant, on CHO-K1 or HEK293T cells (human) (Q13421 other isoform, or with tags, fused parts or gaps limits assumed): as above
Sequence of human MSLN protein endogenously expressed on tumor cells (Hela, OVCAR3) (human) (Q13421 other isoform, or with tags, fused parts or gaps): as the sequence (Q13421 other isoform, or with tags, fused parts or gaps limits assumed) above, with P14R counted along it
Sequence of chimeric human MSLN-R3 / chicken MSLN-R1-2 protein on HEK293T cells (clone A5) (chicken; human) (Q13421 495-614, change not shown): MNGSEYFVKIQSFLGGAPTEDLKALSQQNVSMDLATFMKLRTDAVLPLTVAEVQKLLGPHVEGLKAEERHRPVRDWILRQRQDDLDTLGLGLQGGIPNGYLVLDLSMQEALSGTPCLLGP
Sequence of human MSLN-R3-3 polypeptide (purchased from GL Biochem, Cat. No. 406676) (human) (peptide, as listed by the source): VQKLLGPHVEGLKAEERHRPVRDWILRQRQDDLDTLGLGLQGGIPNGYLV

MFI of Biotin-Tab142 [1]: 24300 | FACS signal (MFI) [2]: 125 | FACS signal (MFI) [3]: 110 | FACS signal (MFI) [4]: 78 | MFI [4]: 329 | MFI of Biotin-Tab142 [5]: 22700 | MFI of Biotin-Tab131 [6]: 12600 | MFI [7]: 74 | Max MFI [8]: 77 | FACS signal (MFI) [9]: 84 | FACS signal (MFI) [10]: 127 | OD450 nm [11]: 0.15 | MFI of Biotin-Tab131 [12]: 12500 | OD450 nm [13]: 0.06 | OD450 nm [14]: 0.09 | FACS signal (MFI) [15]: 116 | MFI [16]: 73 | FACS signal (MFI) [17]: 74 | Max MFI [18]: 137 | MFI of Biotin-Tab142 [19]: 41200 | FACS signal (MFI) [20]: 74 | MFI of Biotin-Tab142 [21]: 24000 | MFI of Biotin-Tab142 [22]: 42600 | FACS signal (MFI) [23]: 65 | Max MFI [24]: 104 | OD450 nm [25]: 0.11 | Max MFI [26]: 80 | MFI of Biotin-Tab131 [27]: 12700 | FACS signal (MFI) [28]: 85 | FACS signal (MFI) [29]: 93
Substance: hIgG1 (antibody)
